Assay: Tissue distribution of fluorescently labeled polyamide
Format: in vivo
Conditions: 7.5 mg/kg tail vein, mice
Description: On day 1 (24 hours), day 6 and day 21 after the intravenous injection, the mice were dissected, and each tissue of the livers, the spleens and the kidneys was collected and prepared into frozen sections, which were then fixed in 4% paraformaldehyde for 30 minutes.

CN(C)CCCNC(=O)CCNC(=O)c1cc(NC(=O)c2cc(NC(=O)CCNC(=O)c3nc(NC(=O)c4nc(NC(=O)CCCNC(=O)c5cc(NC(=O)c6cc(NC(=O)CCNC(=O)c7cc(NC(=O)c8cc(NC(=O)CCNC(=S)Nc9ccc(-c%10c%11ccc(=O)cc-%11oc%11cc(O)ccc%10%11)c(C(=O)O)c9)cn8C)cn7C)cn6C)cn5C)cn4C)cn3C)cn2C)cn1C [HMMP9NFκβ-FITC]
incorporation in the nuclei of liver and kidney cells (after 1 day): A large number
incorporation in the nuclei of spleen cells (after 1 day): also incorporated in the nuclei of spleen cells
FITC fluorescence in tissue (after 6 days): strong FITC fluorescence was observed
FITC fluorescence intensity in the cells of each tissue (after 21 days): remarkably attenuated
